T1: recombinant human herpes virus entry mediator (HVEM) (human, UniProt Q92956 39-202)
T1 construct: neither construct is described; also called human HVEM; recombinant human HVEM protein (R&D systems)
T1 sequence (looked up): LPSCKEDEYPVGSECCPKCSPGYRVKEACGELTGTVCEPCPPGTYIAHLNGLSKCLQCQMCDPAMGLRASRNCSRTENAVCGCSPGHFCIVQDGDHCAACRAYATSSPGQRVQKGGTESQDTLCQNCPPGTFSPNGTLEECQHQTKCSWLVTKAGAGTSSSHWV

B1: T3.01 (anti-hu FAP/hu scLIGHT3, hu IgG1 DANG) (bispecific antibody)
heavy: QVQLVQSGAEVKKPGASVKVSCKTSRYTFTEYTIHWVRQAPGQRLEWIGGINPNNGIPNYNQKFKGRVTITVDTSASTAYMELSSLRSEDTAVYYCARRRIAYGYDEGHAMDYWGQGTLVTVSSASTKGPSVFPLAPSSKSTSGGTAALGCLVKDYFPEPVTVSWNSGALTSGVHTFPAVLQSSGLYSLSSVVTVPSSSLGTQTYICNVNHKPSNTKVDKKVEPKSCDKTHTCPPCPAPELLGGPSVFLFPPKPKDTLMISRTPEVTCVVVAVSHEDPEVKFNWYVDGVEVHNAKTKPREEQYGSTYRVVSVLTVLHQDWLNGKEYKCKVSNKALPAPIEKTISKAKGQPREPQVYTLPPSRDELTKNQVSLWCLVKGFYPSDIAVEWESNGQPENNYKTTPPVLDSDGSFFLYSKLTVDKSRWQQGNVFSCSVMHEALHNHYTQKSLSLSPGK
light: not shown
chain: not shown
notes: Knob-into-hole heterodimer: one anti-FAP Fab arm and one single-chain human LIGHT (91-240) homotrimer arm
B2: T3.14 (anti-hu FAP/hu scLIGHT-LTb2, hu IgG1 DANG) (bispecific antibody)
heavy: B1 heavy
light: not shown
chain: not shown
notes: Knob-into-hole; single-chain heterotrimer of one human LIGHT and two human lymphotoxin beta (87-243)

Assays:
[1] = target: T1, recombinant human herpes virus entry …; assay: SPR, human HVEM immobilised on CM5, fusion protein as analyte, 1:1 binding model
Description: (§1) Specifically, the surface of the CM5 chip was activated with a 1:1 mixture of […], and 5 to 6 μg/mL of human HVEM was immobilized for 60 seconds at a rate of 10 μL/min. The remaining active ester groups were blocked with 1 M ethanolamine. T3.01, T3.07, T3.09, T3.14, and T3.18 were each diluted to 100 nM in 1×HBS-EP+buffer solution and diluted by serial dilution. The diluted fusion proteins were reacted at a rate of 30 μL/min. The association and dissociation times were 180 seconds and 400 seconds, respectively. After the dissociation step, stabilization was performed for 60 seconds, and then the regeneration step was performed for 30 seconds with a 10 mM glycine pH 1.5 solution at a rate of 30 μL/min.

[2] = target: T1, recombinant human herpes virus entry …; assay: SPR, human HVEM immobilised on the chip (title: PRO096; 6ug/ml human HVEM pH5.5), T3.14 as analyte 0.78125-100 nM
Description: as §1

| Binder | Kd [1] [nM] | koff [1] [s⁻¹] | kon [1] [M⁻¹ s⁻¹] | binding result [2] |
| --- | --- | --- | --- | --- |
| B1 | 4.24 | 0.00119 | 281000 |  |
| B2 |  |  |  | no binding (tested: 100 nM) |
